In assay [1] the target is His6-GapR1-69 (truncated protein lacking the entire Helix 3) (Caulobacter crescentus). The assay is described as follows: SEC + cross-linking.
Assay [2] concerns the target His6-GapR1-76 (truncated protein lacking only the hydrophobic patch of Helix 3) (Caulobacter crescentus). The assay is described as follows: SEC + cross-linking.
For assay [3], the target named is His6-GapR1-89 (full-length WT GapR), purified (Caulobacter crescentus). Briefly: SEC + cross-linking.
Assay [4] has as its target untagged GapR1-89 (Caulobacter crescentus).

Turning to “His6-GapR1-69 (truncated protein lacking the entire Helix 3) (domain or fragment)”, the stoichiometry N in assay [1] was determined as 2.
As to “His6-GapR1-76 (truncated protein lacking only the hydrophobic patch of Helix 3) (domain or fragment)”, in assay [2], the stoichiometry N was found to be 2.
Regarding “His6-GapR1-89 (full-length WT GapR), purified (natural protein)”, the stoichiometry N in assay [3] came out at 4.
Substance untagged GapR1-89 (natural protein) showed a stoichiometry N in assay [4] of 4.

Broadly, the stoichiometry N is the number of molecules, sites or subunits per partner or assembly.
